# Data from the supplement of paper PMC10724198.
# ± gives the standard deviation of the averaged measurements.
# Tested on: Saccharomyces cerevisiae
# Assay: protein stability index of tFT-peptide fusion (C-terminal peptide) (PSI (0-1 scale)); higher = more stable (slower turnover)
# Settings: genetic background: wild type; temperature: 30 C
# Description: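 Multiplexed protein stability (MPS) profiling in S. cerevisiae. Random 12-aa peptides (tFT-X12 library) are fused to the C-terminus of a sfGFP-mCherry tandem fluorescent timer, after mCherry and a GGGS linker. Cells are FACS-sorted into 8 mCherry/sfGFP bins and deep-sequenced. The protein stability index (PSI) is the read-weighted bin average, scaled from 0 (unstable) to 1 (stable). Only peptides with >10 reads are reported; cells were grown at 30 °C in SC-His with glucose.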
# 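Further: PSI is a weighted mean of sequencing reads over stability bins, variants kept only with over 10 reads, mCherry proximal and sfGFP distal, peptide attached via GGGS linker.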
row,Sequence,protein stability index
1,ARVLVLMNGVCV,0.592 ± 0.032
2,ASCLSPPSPFPR,0.653 ± 0.013
3,ASLDTALVHITL,0.622 ± 0.0064
4,ASLIGHLKATSP,0.672 ± 0.014
5,ASLLLVFSPPIS,0.703 ± 0.043
6,ASNEPQRQELGS,0.693 ± 0.018
7,ASPSAPPRPPTP,0.697 ± 0.013
8,ASRADSALGITV,0.727 ± 0.055
9,ASRSGVPGVRVG,0.685 ± 0.027
10,ASRYPVPLQPHH,0.6982 ± 0.0044
11,ASSFEGVWCTGC,0.721 ± 0.0093
12,ASSGGCVPTLPL,0.68 ± 0.0078
13,ASSLKSTQVSGV,0.72769 ± 0.00011
14,ASSMLPVCLVTL,0.588 ± 0.056
15,ASSPSLSSPPTL,0.7106 ± 0.0051
16,ASSVLLIAQLQS,0.619 ± 0.0054
17,ATDCHVYRPPDL,0.6941 ± 0.0013
18,ATHEEGRVRCGV,0.709 ± 0.078
19,ATIRSSQGFKIY,0.612 ± 0.013
20,ATIYTAATTYHV,0.71342 ± 0.00066
21,ATPNRSKNKHDT,0.679 ± 0.0011
22,ATRSTLHDSMVS,0.714 ± 0.059
23,ATSPPGLLAQPA,0.663 ± 0.0017
24,ATTQLPPPGGMC,0.695 ± 0.024
25,ATYNRPPPPGLD,0.682 ± 0.068
26,ATYTTQQLPNYH,0.685 ± 0.011

row,Sequence,protein stability index
1,AVCLLRLDRSRA,0.665 ± 0.027
2,AVERGGRGRVVG,0.639 ± 0.04
3,AVFLGGLLVSRW,0.682 ± 0.24
4,AVGFVVHNSLKK,0.739 ± 0.017
5,AVGGGGRLMCGV,0.645 ± 0.053
6,AVGGGVVGQGWV,0.604 ± 0.012
7,AVGGWRAGGGGG,0.731 ± 0.04
8,AVLRVCHVEVVP,0.634 ± 0.031
9,AVNFESSHPICA,0.58 ± 0.0073
10,AVPPQLAPPRPL,0.679 ± 0.037
11,AVPSGLPLMFPR,0.662 ± 0.045
12,AVSAGQASPGRA,0.681 ± 0.061
13,AVSLWAIFPLYT,0.611 ± 0.015
14,AVVVCGGGWWWA,0.746 ± 0.094
15,AWCLGVGESRPH,0.739 ± 0.035
16,AWECCFLGRSGV,0.846 ± 0.075
17,AWEETISVIGVM,0.711 ± 0.048
18,AWGARWVCVMGG,0.626 ± 0.027
19,AWGGELGATSGG,0.711 ± 0.0094
20,AWGPGRGGGGDA,0.677 ± 0.01
21,AWLCSVFLLSLS,0.533 ± 0.0076
22,AWVVFGLRFGFD,0.534 ± 0.053
23,AYFGSCCCLPLG,0.69 ± 0.039
24,AYFLPPLPTTPP,0.692 ± 0.054
25,AYKGTPTCKTRR,0.689 ± 0.1
26,AYPRLRPSPSPH,0.7212 ± 0.0066

row,Sequence,protein stability index
1,CAHKRTPRLGPE,0.66 ± 0.077
2,CAITAPINRSWN,0.702 ± 0.009
3,CCCVGRGVGSRF,0.703 ± 0.0054
4,CCDWLFCVGVAG,0.558 ± 0.0079
5,CCFFPPPGRTRQ,0.676 ± 0.015
6,CCLSVFSYESLA,0.709 ± 0.016
7,CCYCLTVCRWFT,0.571 ± 0.038
8,CDDGLIVNKVDS,0.665 ± 0.0092
9,CDFASTDSLLGG,0.702 ± 0.013
10,CDSSSVGYLVVR,0.655 ± 0.014
11,CEAGAGTGGADL,0.674 ± 0.018
12,CEFGGEEINQTV,0.6951 ± 0.0015
13,CEPSLPGRSRRA,0.753 ± 0.056
14,CESASGAAWLGG,0.723 ± 0.029
15,CESEAGGGVTLC,0.669 ± 0.025
16,CFAFRPLLPSSP,0.686 ± 0.0086
17,CFASLLSFCPLV,0.695 ± 0.065
18,CFCDDRPSLRRV,0.729 ± 0.019
19,CFCPWFGRVCLG,0.5142 ± 0.0014
20,CFGMMVFFHRVI,0.534 ± 0.076
21,CFLFLTVSSREG,0.534 ± 0.03
22,CFPSFVTFSSLF,0.7722 ± 0.0041
23,CFRFPILTSHFY,0.592 ± 0.026
24,CFTPYNPSPLLS,0.715 ± 0.021
25,CFWSVIGVQFEV,0.629 ± 0.0095
26,CFYSFWQVTRFL,0.477 ± 0.062

row,Sequence,protein stability index
1,CGEEVGGGVMIW,0.689 ± 0.015
2,CGKPRIHEGRLM,0.691 ± 0.02
3,CGLSYSISVNMR,0.627 ± 0.02
4,CGSGVAVGVLVL,0.6 ± 0.038
5,CGSNSSLQECGV,0.679 ± 0.11
6,CGSVERAEKGHI,0.662 ± 0.025
7,CGVEERRIGGVC,0.725 ± 0.034
8,CGVHQSRATPMS,0.663 ± 0.032
9,CGWTATRTCGLV,0.7541 ± 0.0063
10,CHMSLDGPLLGF,0.728 ± 0.2
11,CHVRSSILINRT,0.65 ± 0.1
12,CIITHSQNKLNT,0.724 ± 0.059
13,CKGIGRGGGVVS,0.607 ± 0.051
14,CKGSGLGGGVVS,0.583 ± 0.017
15,CKIDGGIIRTCR,0.676 ± 0.023
16,CKTYPTKALVVE,0.693 ± 0.0097
17,CLAAHARFSLRL,0.65 ± 0.05
18,CLALLSYLGFTF,0.675 ± 0.069
19,CLCYAWVPAPLF,0.604 ± 0.018
20,CLGPGTFLLFFV,0.5952 ± 0.0026
21,CLGPGVLVGCVC,0.402 ± 0.16
22,CLLLGDALGYYG,0.683 ± 0.033
23,CLLSWVLDCFLV,0.548 ± 0.024
24,CLPHSLPHPPPH,0.6791 ± 0.0056
25,CLRLAFPSGPCI,0.683 ± 0.098
26,CLSCLFFRVFAD,0.573 ± 0.08

row,Sequence,protein stability index
1,CLSLPFSLFPLM,0.619 ± 0.068
2,CLYVGSRPPRSA,0.71 ± 0.031
3,CLYVTFFLPCIL,0.491 ± 0.016
4,CMFSSTSSTNVN,0.731 ± 0.085
5,CMGSDKAGKSVA,0.681 ± 0.016
6,CNLVCFRRFLYR,0.62 ± 0.041
7,CNTPGLSHELLH,0.786 ± 0.11
8,CPAAWSLPCRPP,0.6599 ± 0.0018
9,CPCASEYIAFTL,0.701 ± 0.018
10,CPDSFARSAVLS,0.673 ± 0.074
11,CPGLYVRAYGHC,0.613 ± 0.049
12,CPLAAGSFSSLS,0.6608 ± 0.0009
13,CPNFYPARNSRL,0.696 ± 0.2
14,CPPPIPPSRPPS,0.666 ± 0.067
15,CPPSPFPPPLPR,0.767 ± 0.094
16,CPTHPLFLDSYV,0.676 ± 0.026
17,CQGHFAAKTEKI,0.684 ± 0.019
18,CQQCLATYNKGP,0.708 ± 0.16
19,CQQIKKNKKIKN,0.661 ± 0.0026
20,CQRDYLFKSRLP,0.639 ± 0.069
21,CQSRLPSTKNRH,0.695 ± 0.015
22,CQWGGWGVGVGG,0.761 ± 0.061
23,CQYSRRRRQELH,0.65 ± 0.075
24,CRGEGGRTVING,0.634 ± 0.063
25,CRGGWKCGQEKG,0.635 ± 0.014
26,CRGLRRSLGSIL,0.682 ± 0.063

row,Sequence,protein stability index
1,CRGYRFLSEMKV,0.645 ± 0.07
2,CRLANEIMYDKN,0.685 ± 0.014
3,CRLPLSTIRARP,0.724 ± 0.047
4,CRPFGVSCHIRV,0.739 ± 0.17
5,CRRSSRIKHILL,0.603 ± 0.029
6,CRTIILCLLTNL,0.498 ± 0.024
7,CRVAFGFMSRFV,0.729 ± 0.067
8,CRWLAKRVKDSS,0.629 ± 0.04
9,CSAAVVQSSGSE,0.67 ± 0.034
10,CSCGRGRLARRL,0.686 ± 0.13
11,CSCPEDGILCIF,0.62 ± 0.076
12,CSDRRVAGGRGG,0.676 ± 0.073
13,CSGLFLAPSYTQ,0.713 ± 0.0096
14,CSLEREKLQEQQ,0.689 ± 0.022
15,CSLTLPFFFGSL,0.6771 ± 0.0026
16,CSSARVLPLPVP,0.661 ± 0.041
17,CSSTCRCCAAFD,0.641 ± 0.0086
18,CSVDSRLSMLVL,0.605 ± 0.044
19,CTLMPPQSRRPP,0.604 ± 0.057
20,CTLVSREHFGFL,0.685 ± 0.041
21,CTRTREDPKIGI,0.714 ± 0.024
22,CTSCDQRLQRWG,0.728 ± 0.033
23,CTYHLPFYNVLF,0.849 ± 0.19
24,CVATTHASHTSP,0.694 ± 0.033
25,CVCAIVDGGTFG,0.723 ± 0.07
